{"source": "patent CN116925225A", "about": "(CAS BLOOD HEMATONOSIS HOSPITAL INST OF BLOOD HEMATONOSIS CAS, dated 2023)", "molecular_target": "T1, 人CD7 (human CD7 on the surface of Jurkat, Molt4, CCRF-CEM and Hut78 cells) (human, UniProt P09564 26-240)", "T1 construct": "whole, on cells; also called CD7抗原", "T1 sequence (looked up)": "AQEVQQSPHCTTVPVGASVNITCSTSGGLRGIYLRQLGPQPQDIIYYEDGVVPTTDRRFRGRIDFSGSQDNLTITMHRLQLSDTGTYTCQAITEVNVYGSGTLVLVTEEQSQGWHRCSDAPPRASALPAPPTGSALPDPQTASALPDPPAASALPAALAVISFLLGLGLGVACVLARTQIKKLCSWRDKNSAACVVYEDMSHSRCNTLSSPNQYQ", "assay": "FACS, 0.15μg/100μl antibody on 2×10^5 Jurkat, Molt4, CEM and Hut78 cells (high in human CD7)", "data": [{"binder": "单克隆抗体HIT7 (CD7-HIT7, mouse anti-human CD7 monoclonal antibody) (antibody, V domains shown, also called 本发明单克隆抗体; 鼠抗人CD7单克隆抗体) VH: QVQLQESGPGLVKPSQTVSLTCTVTGISITTGNYRWSWIRQFPGNKLEWIGYIYYSGIITYNPSRTSRTTITRDISKNQFFLEMNSLTAEDTATYYCARERGIYYDSLWYFDVWGAGTTVTVSS VL: DIVLTQSPASLAVSLGQRATISCRASKSVSASGYSYMHWYQQKPGQPPKLLIYLASNLESGVPARFSGSGSGTDFTLNIHPVEEEDAVTYYCQHSRELPYTFGGGTKLEIKR", "values": [{"measurement": "binding result", "result": "binds"}]}]}
